Measured values reported in PMC4331669, “Phosphatidylinositol binding of Saccharomyces cerevisiae Pdr16p represents an essential feature of this lipid transfer protein to provide protection against azole antifungals” (Biochimica et Biophysica Acta. Molecular and Cell Biology …, 2014).

B1: Pdr16p (wild-type, recombinant Pdr16-His) (natural protein, S. cerevisiae, UniProt P53860 1-351, looked up)
chain: MFKRFSKKKEAPEDPKNLINIDKPIKELPASIAIPKEKPLTGEQQKMYDEVLKHFSNPDLKVYTSEKNKSEDDLKPLEEEEKAWLTRECFLRYLRATKWVLKDCIDRITMTLAWRREFGISHLGEEHGDKITADLVAVENESGKQVILGYENDARPILYLKPGRQNTKTSHRQVQHLVFMLERVIDFMPAGQDSLALLIDFKDYPDVPKVPGNSKIPPIGVGKEVLHILQTHYPERLGKALLTNIPWLAWTFLKLIHPFIDPLTREKLVFDEPFVKYVPKNELDSLYGGDLKFKYNHDVYWPALVETAREKRDHYFKRFQSFGGIVGLSEVDLRGTHEKLLYPVKSESSTV
notes: Pdr16p (Sfh3p) of Saccharomyces cerevisiae, ORF PDR16 amplified from YEplac181-PDR16 and inserted between NdeI and NotI of pET26; predicted monomer mass 40.7 kDa; The whole ORF was cloned NdeI-NotI into pET26 with a C-terminal 6xHis; No removal of the tag is described; also called Sfh3p; source: E. coli Rosetta, purified (Ni-NTA agarose)
B2: Pdr16p^(E235A, K267A) (recombinant Pdr16^(E235A, K267A)-His) (natural protein, S. cerevisiae, UniProt P53860 1-351, looked up)
chain: MFKRFSKKKEAPEDPKNLINIDKPIKELPASIAIPKEKPLTGEQQKMYDEVLKHFSNPDLKVYTSEKNKSEDDLKPLEEEEKAWLTRECFLRYLRATKWVLKDCIDRITMTLAWRREFGISHLGEEHGDKITADLVAVENESGKQVILGYENDARPILYLKPGRQNTKTSHRQVQHLVFMLERVIDFMPAGQDSLALLIDFKDYPDVPKVPGNSKIPPIGVGKEVLHILQTHYPARLGKALLTNIPWLAWTFLKLIHPFIDPLTREALVFDEPFVKYVPKNELDSLYGGDLKFKYNHDVYWPALVETAREKRDHYFKRFQSFGGIVGLSEVDLRGTHEKLLYPVKSESSTV
notes: Same construct as m1 with the two point mutations; source: E. coli Rosetta, purified (Ni-NTA agarose)

Molecular target: the molecule itself
Assay: SEC; Superose 12 10/300 GL, 20 mM PIPES pH 6.8, 250 mM NaCl, 2.7 mM KCl, 0.4 ml/min; BSA and ovalbumin as molecular weight standards; apparent mass about 90 kDa against a predicted monomer of 40.7 kDa

Row | Protein | stoichiometry N
1 | B1 | 2
2 | B2 | 2
